B1: TERF1-interacting nuclear factor 2 (Mus musculus), Q9QXG9 (parent)
chain: MAPPPGVGPASLRFAAAASWLVVRRRRVEHFPKVVEFLQSLRAAAPGLVCYRHHERLCMSLKAKVVVELILQARPWDQVLNALKHHFPAESRTTKEDRKLLEARENFCLLVKHLSEDPPSSLQELEQDYGESFLVAMEKLLFEYLCQLEKALPPVRAQELQDALSWSQPGSFITSSVALHQYGMDMGWTFPESSTSGSGNLIEPMEESPHQQTRPAFHSPLPKAKLGPHQPASLEHPEHLAGHRFNLAPLGKRKSRSHWTSAKACHKERPTVMLLPFRNMGLPAQDLSNPKSREEPGAASAASVGTEPVCTEEAKTPSRPLGKRALEETPPDSPAASRRTV
partner: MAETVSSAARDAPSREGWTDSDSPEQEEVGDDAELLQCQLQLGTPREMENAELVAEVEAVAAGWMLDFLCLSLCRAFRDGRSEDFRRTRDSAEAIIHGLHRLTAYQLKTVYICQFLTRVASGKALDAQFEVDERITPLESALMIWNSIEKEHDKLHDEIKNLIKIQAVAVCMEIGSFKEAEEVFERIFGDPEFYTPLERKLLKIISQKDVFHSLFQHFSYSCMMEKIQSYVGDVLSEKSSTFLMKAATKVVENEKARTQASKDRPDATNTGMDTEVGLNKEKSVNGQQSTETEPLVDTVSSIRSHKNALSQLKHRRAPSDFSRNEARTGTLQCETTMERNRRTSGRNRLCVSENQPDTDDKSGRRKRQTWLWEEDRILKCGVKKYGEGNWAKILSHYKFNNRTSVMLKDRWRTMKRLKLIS

Variants of: B1
Conditions: with terf1_mouse Terf1, P70371

| Variant | effect of a mutation on the interaction |
| --- | --- |
| L247E | disrupting interaction |

Reference: IntAct's records for PubMed 24469404
